Tests used:
[1] = target: T1, Fc-tagged human FGFR4 ectodomain (human, UniProt P22455 22-369); experiment: pull-down: Fc-FGFR on protein A/G beads, then FGF21 with PBS, FLAG-sKL or heparin; Western blot with anti-FGF21
T1 construct: extracellular domain; Bought; also called Fc-FGFR4; not shown: Fc tag
T1 sequence (looked up): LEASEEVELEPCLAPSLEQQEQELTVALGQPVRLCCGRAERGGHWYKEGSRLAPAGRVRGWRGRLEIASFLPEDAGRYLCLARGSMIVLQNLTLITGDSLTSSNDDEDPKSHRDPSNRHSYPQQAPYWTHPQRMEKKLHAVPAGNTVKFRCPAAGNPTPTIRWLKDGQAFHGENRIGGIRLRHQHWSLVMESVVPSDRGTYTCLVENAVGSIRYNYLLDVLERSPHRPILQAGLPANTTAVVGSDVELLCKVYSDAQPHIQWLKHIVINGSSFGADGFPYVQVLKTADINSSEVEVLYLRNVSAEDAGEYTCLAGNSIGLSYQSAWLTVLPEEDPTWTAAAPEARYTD
Experimental: To study the interaction between Fc-tagged FGFR isoforms (Fc-FGFR), FGF isoforms, and sKL, immunoprecipitation studies were conducted. Protein A beads (6501, BioVision) and protein G beads (6511, BioVision) were used at 25 μl of a 50% stock slurry per sample in a total bead volume of 50 μl. Beads were washed 5× in activity buffer (50 mM Tris [pH 7.4], 200 mM NaCl, 0.01% Tween 20). Bead spin-down assays were all performed for 2 minutes at 5000 g. Beads were resuspended in 1 ml of activity buffer in a 1.5-ml snap cap tube. One microgram of Fc-FGFR1 to 4 was incubated with the beads for 1 hour on a bead rotator. Control samples were incubated with 2 μg of anti-FGF antibody instead of Fc-FGFR. Beads were then pelleted at 5000 g for 2 minutes and washed 5× with activity buffer. Beads were resuspended and incubated with different combinations of 500 ng of FGF, 1 μg of sKL, 1.6 United States Pharmacopeia (USP) units of heparin, or phosphate-buffered saline (PBS). Beads were incubated for 1 hour on a tube rotator, and beads were pelleted and washed as before. One hundred microliters of 1× Laemmli sample buffer (1610737, Bio-Rad) with 1.42 M 2-mercaptoethanol was added, and samples were boiled for 5 minutes. Samples were analyzed using SDS-PAGE and Western blotting.

[2] = target: T2, recombinant FGF23 protein (species not stated for the assay); experiment: plate assay: 100 ng FGF23 coated, 400 ng purified FLAG-tagged sKL-N694Q or wildtype, anti-FLAG-HRP (FIG. 25E)
T2 construct: also called fibroblast growth factor 23
T2 sequence (Q9GZV9 25-251, species assumed, looked up): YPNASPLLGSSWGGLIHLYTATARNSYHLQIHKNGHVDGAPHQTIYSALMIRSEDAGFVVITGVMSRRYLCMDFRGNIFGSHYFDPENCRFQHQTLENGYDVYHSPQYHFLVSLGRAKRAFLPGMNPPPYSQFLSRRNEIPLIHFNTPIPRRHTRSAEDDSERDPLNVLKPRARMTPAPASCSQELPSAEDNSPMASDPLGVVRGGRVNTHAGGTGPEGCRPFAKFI
Experimental: Plates were coated with 100 ng of FGF23 or 200 ng of FGFR1c and incubated with 400 ng of purified FLAG-tagged wildtype sKL or sKL-N694Q.

B1: human FGF21 (ligand, UniProt Q9NSA1 29-209, looked up)
chain: HPIPDSSPLLQFGGQVRQRYLYTDDAQQTEAHLEIREDGTVGGAADQSPESLLQLKALKPGVIQILGVKTSRFLCQRPDGALYGSLHFDPEACSFRELLLEDGYNVYQSEAHGLPLHLPGNKSPHRDPAPRGPARFLPLPGLPPALPEPPGILAPQPPDVGSSDPLSMVGPSQGRSPSYAS
- binding result [1]: no binding (tested: 500 ng FGF21 (Methods paragraph 182))

B2: FLAG-tagged sKL-N694Q (receptor)
chain: EPGDGAQTWARFSRPPAPEAAGLFQGTFPDGFLWAVGSAAYQTEGGWQQHGKGASIWDTFTHHPLAPPGDSRNASLPLGAPSPLQPATGDVASDSYNNVFRDTEALRELGVTHYRFSISWARVLPNGSAGVPNREGLRYYRRLLERLRELGVQPVVTLYHWDLPQRLQDAYGGWANRALADHFRDYAELCFRHFGGQVKYWITIDNPYVVAWHGYATGRLAPGIRGSPRLGYLVAHNLLLAHAKVWHLYNTSFRPTQGGQVSIALSSHWINPRRMTDHSIKECQKSLDFVLGWFAKPVFIDGDYPESMKNNLSSILPDFTESEKKFIKGTADFFALCFGPTLSFQLLDPHMKFRQLESPNLRQLLSWIDLEFNHPQIFIVENGWFVSGTTKRDDAKYMYYLKKFIMETLKAIKLDGVDVIGYTAWSLMDGFEWHRGYSIRRGLFYVDFLSQDKMLLPKSSALFYQKLIEKNGFPPLPENQPLEGTFPCDFAWGVVDNYIQVDTTLSQFTDLNVYLWDVHHSKRLIKVDGVVTKKRKSYCVDFAAIQPQIALLQEMHVTHFRFSLDWALILPLGNQSQVNHTILQYYRCMASELVRVNITPVVALWQPMAPNQGLPRLLARQGAWENPYTALAFAEYARLCFQELGHHVKLWITMNEPYTRQMTYSAGHNLLKAHALAWHVYNEKFRHAQNGKISIALQADWIEPACPFSQKDKEVAERVLEFDIGWLAEPIFGSGDYPWVMRDWLNQRNNFLLPYFTEDEKKLIQGTFDFLALSHYTTILVDSEKEDPIKYNDYLEVQEMTDITWLNSPSQVAVVPWGLRKVLNWLKFKYGDLPMYIISNGIDDGLHAEDDQLRVYYMQNYINEALKAHILDGINLCGYFAYSFNDRTAPRFGLYRYAADQFEPKASMKHYRKIIDSNGFPGPETLERFCPEEFTVCTECSFFHTRKS
notes: Human assignment as for m24; Tested in HEK293 media and as protein purified from supernatants; also called N6940 and sKL-N6940; not shown: C-terminal FLAG/His tag
- fold increase in FGF23 binding against the wildtype protein [2]: 3 fold

Reference: patent US20240384250A1 (UAB RESEARCH FOUNDATION, published 2024)
